# B1: HIGAL: GH Family 53 galactanase from Humicola insolens, SEQ ID NO: 2 (wild type parent) (protein, listed as Humicola insolens)
# chain: ALQYKGVDWSSVMVEERAGVRYKNVNGQEKPLEYILAENGVNMVRQRVWVNPWDGNYNLDYNIQLARRAKAAGLGLYINFHYSDTWADPAHQTTPAGWPSDINNLAWKLYNYTLDSMNRFADAGIQVDIVSIGNEITQGLLWPLGKTNNWYNIARLLHSAAWGVKDSRLNPKPKIMVHLDNGWNWDTQNWWYTNVLSQGPFEMSDFDMMGVSFYPFYSASATLDSLRRSLNNMVSRWGKEVAVVETNWPTSCPYPRYQFPADVRNVPFSAAGQTQYIQSVANVVSSVSKGVGLFYWEPAWIHNANLGSSCADNTMFTPSGQALSSLSVFHRI
# modifications: mat_peptide (1)..()
# Assay: Activity with ONPG, release of o-nitrophenol (ONP) at 405 nm
# Assay type: biochemical
# Details: enzyme 110 μg/ml, ONPG 5 mg/ml
# Description: The activity of HIGAL and MTGAL with ONPG was tested by mixing 200 microliters (normally 5.5 mg/ml) ONPG in 50 mM sodium acetate, 1 mM CaCl2, 0.01% Triton X-100, pH 6.5 with 25 microliters galactanase (normally 1 mg/ml) in the well of a microtiter plate. Release of o-nitrophenol (ONP) was measured at room temperature at 405 nm every 10 seconds normally for 30 min on a SpectraMaxPlus (Molecular Devices). Effects on the observed release of ONP was studied with varied enzyme concentration, ONPG concentration and with addition of galactose (Gal), beta-1,4-galactobiose (Gal2) (Megazyme), beta-1,4-galactotriose (Gal3), beta-1,4-galactotetraose (Gal4), glucose (Glu), arabinose (Ara), galacturonic acid (GalA), maltose (Mal) or maltotriose (Mal3).
# In Tables 8-11 below, incubation times required to increase the observed absorbance at 405 nm by given amounts are listed. Cells marked ‘n.r.’ indicate that the increase in absorbance was not reached in the experiment. In general, the initial increase in absorbance at 405 nm was very slow, but after a lag phase the rate of ONP release often increased drastically—often approximately exponentially. The most likely explanation for the observed kinetics is that ONPG reacts with the enzyme to give an enzyme-galactosyl intermediate which hydrolyses very slowly. Instead, the Gal of the intermediate is released by transglycosylation, initially with ONPG or added sugar as acceptor. In cases where the rate of ONP release increases, these transglycosylation products are even better acceptors than the initial ones. […] More likely, Gal inhibits the subsequent transglycosylation, which requires binding of ONPG to the +1 and +2 subsites, e.g., by binding to the +2 subsite. With 50 mg/ml Gal added (results not shown) release of ONP was even slower with only insignificant increase of absorbance at 405 nm in 30 min.
# [1] = Table 11, no sugar, first experiment
# [2] = Table 11, no sugar, second experiment
# [3] = Table 11, no sugar, third experiment
molecule,measurement,setting,value
B1,Initial rate (mOD/min),"Table 10, Gal3 0.5 mg/ml",200 mOD/min
same,Time (min) to increase A405 by: 0.025,"Table 10, Gal3 0.5 mg/ml",0.0 min
same,Time (min) to increase A405 by: 0.05,"Table 10, Gal3 0.5 mg/ml",0.2 min
same,Time (min) to increase A405 by: 0.1,"Table 10, Gal3 0.5 mg/ml",0.3 min
same,Time (min) to increase A405 by: 0.2,"Table 10, Gal3 0.5 mg/ml",0.5 min
same,Time (min) to increase A405 by: 0.4,"Table 10, Gal3 0.5 mg/ml",0.8 min
same,Time (min) to increase A405 by: 0.8,"Table 10, Gal3 0.5 mg/ml",1.5 min
same,Time (min) to increase A405 by: 1.6,"Table 10, Gal3 0.5 mg/ml",2.5 min
same,Time (min) to increase A405 by: 3.2,"Table 10, Gal3 0.5 mg/ml",3.8 min
same,Initial rate (mOD/min),"Table 10, Gal4 0.05 mg/ml",80 mOD/min
same,Time (min) to increase A405 by: 0.025,"Table 10, Gal4 0.05 mg/ml",0.2 min
same,Time (min) to increase A405 by: 0.05,"Table 10, Gal4 0.05 mg/ml",0.5 min
same,Time (min) to increase A405 by: 0.1,"Table 10, Gal4 0.05 mg/ml",0.8 min
same,Time (min) to increase A405 by: 0.2,"Table 10, Gal4 0.05 mg/ml",1.5 min
same,Time (min) to increase A405 by: 0.4,"Table 10, Gal4 0.05 mg/ml",2.5 min
same,Time (min) to increase A405 by: 0.8,"Table 10, Gal4 0.05 mg/ml",3.7 min
same,Time (min) to increase A405 by: 1.6,"Table 10, Gal4 0.05 mg/ml",5.2 min
same,Time (min) to increase A405 by: 3.2,"Table 10, Gal4 0.05 mg/ml",7.5 min
same,Initial rate (mOD/min),"Table 10, Gal4 0.5 mg/ml",700 mOD/min
same,Time (min) to increase A405 by: 0.025,"Table 10, Gal4 0.5 mg/ml",0.0 min
same,Time (min) to increase A405 by: 0.05,"Table 10, Gal4 0.5 mg/ml",0.0 min
same,Time (min) to increase A405 by: 0.1,"Table 10, Gal4 0.5 mg/ml",0.0 min
same,Time (min) to increase A405 by: 0.2,"Table 10, Gal4 0.5 mg/ml",0.2 min
same,Time (min) to increase A405 by: 0.4,"Table 10, Gal4 0.5 mg/ml",0.5 min
same,Time (min) to increase A405 by: 0.8,"Table 10, Gal4 0.5 mg/ml",1.0 min
same,Time (min) to increase A405 by: 1.6,"Table 10, Gal4 0.5 mg/ml",2.2 min
same,Time (min) to increase A405 by: 3.2,"Table 10, Gal4 0.5 mg/ml",5.3 min
same,Initial rate (mOD/min),"Table 10, no sugar",0.9 mOD/min
same,Time (min) to increase A405 by: 0.025,"Table 10, no sugar",10.0 min
same,Time (min) to increase A405 by: 0.05,"Table 10, no sugar",11.3 min
same,Time (min) to increase A405 by: 0.1,"Table 10, no sugar",12.8 min
same,Time (min) to increase A405 by: 0.2,"Table 10, no sugar",14.2 min
same,Time (min) to increase A405 by: 0.4,"Table 10, no sugar",15.7 min
same,Time (min) to increase A405 by: 0.8,"Table 10, no sugar",17.0 min
same,Time (min) to increase A405 by: 1.6,"Table 10, no sugar",18.5 min
same,Time (min) to increase A405 by: 3.2,"Table 10, no sugar",20.0 min
same,Time (min) to increase A405 by: 0.025,"Table 11, Ara 5 mg/ml",26.5 min
same,Time (min) to increase A405 by: 0.05,"Table 11, Ara 5 mg/ml",n.r.
same,Time (min) to increase A405 by: 0.1,"Table 11, Ara 5 mg/ml",n.r.
same,Time (min) to increase A405 by: 0.2,"Table 11, Ara 5 mg/ml",n.r.
same,Time (min) to increase A405 by: 0.4,"Table 11, Ara 5 mg/ml",n.r.
same,Time (min) to increase A405 by: 0.8,"Table 11, Ara 5 mg/ml",n.r.
same,Time (min) to increase A405 by: 1.6,"Table 11, Ara 5 mg/ml",n.r.
same,Time (min) to increase A405 by: 3.2,"Table 11, Ara 5 mg/ml",n.r.
same,Time (min) to increase A405 by: 0.025,"Table 11, GalA 5 mg/ml",9.5 min
same,Time (min) to increase A405 by: 0.05,"Table 11, GalA 5 mg/ml",11.2 min
same,Time (min) to increase A405 by: 0.1,"Table 11, GalA 5 mg/ml",12.7 min
same,Time (min) to increase A405 by: 0.2,"Table 11, GalA 5 mg/ml",14.3 min
same,Time (min) to increase A405 by: 0.4,"Table 11, GalA 5 mg/ml",15.8 min
same,Time (min) to increase A405 by: 0.8,"Table 11, GalA 5 mg/ml",17.5 min
same,Time (min) to increase A405 by: 1.6,"Table 11, GalA 5 mg/ml",19.3 min
same,Time (min) to increase A405 by: 3.2,"Table 11, GalA 5 mg/ml",22.5 min
same,Time (min) to increase A405 by: 0.025,"Table 11, GalA 50 mg/ml",13.7 min
same,Time (min) to increase A405 by: 0.05,"Table 11, GalA 50 mg/ml",16.7 min
same,Time (min) to increase A405 by: 0.1,"Table 11, GalA 50 mg/ml",20.0 min
same,Time (min) to increase A405 by: 0.2,"Table 11, GalA 50 mg/ml",23.3 min
same,Time (min) to increase A405 by: 0.4,"Table 11, GalA 50 mg/ml",26.8 min
same,Time (min) to increase A405 by: 0.8,"Table 11, GalA 50 mg/ml",n.r.
same,Time (min) to increase A405 by: 1.6,"Table 11, GalA 50 mg/ml",n.r.
same,Time (min) to increase A405 by: 3.2,"Table 11, GalA 50 mg/ml",n.r.
same,Time (min) to increase A405 by: 0.025,"Table 11, Glu 5 mg/ml",12.8 min
same,Time (min) to increase A405 by: 0.05,"Table 11, Glu 5 mg/ml",14.8 min
same,Time (min) to increase A405 by: 0.1,"Table 11, Glu 5 mg/ml",17.0 min
same,Time (min) to increase A405 by: 0.2,"Table 11, Glu 5 mg/ml",19.3 min
same,Time (min) to increase A405 by: 0.4,"Table 11, Glu 5 mg/ml",21.8 min
same,Time (min) to increase A405 by: 0.8,"Table 11, Glu 5 mg/ml",24.3 min
same,Time (min) to increase A405 by: 1.6,"Table 11, Glu 5 mg/ml",27.0 min
same,Time (min) to increase A405 by: 3.2,"Table 11, Glu 5 mg/ml",n.r.
same,Time (min) to increase A405 by: 0.025,"Table 11, Mal 5 mg/ml",11.5 min
same,Time (min) to increase A405 by: 0.05,"Table 11, Mal 5 mg/ml",13.0 min
same,Time (min) to increase A405 by: 0.1,"Table 11, Mal 5 mg/ml",14.3 min
same,Time (min) to increase A405 by: 0.2,"Table 11, Mal 5 mg/ml",15.7 min
same,Time (min) to increase A405 by: 0.4,"Table 11, Mal 5 mg/ml",17.2 min
same,Time (min) to increase A405 by: 0.8,"Table 11, Mal 5 mg/ml",18.7 min
same,Time (min) to increase A405 by: 1.6,"Table 11, Mal 5 mg/ml",20.2 min
same,Time (min) to increase A405 by: 3.2,"Table 11, Mal 5 mg/ml",22.0 min
same,Time (min) to increase A405 by: 0.025,"Table 11, Mal3 5 mg/ml",11.0 min
same,Time (min) to increase A405 by: 0.05,"Table 11, Mal3 5 mg/ml",12.3 min
same,Time (min) to increase A405 by: 0.1,"Table 11, Mal3 5 mg/ml",13.8 min
same,Time (min) to increase A405 by: 0.2,"Table 11, Mal3 5 mg/ml",15.2 min
same,Time (min) to increase A405 by: 0.4,"Table 11, Mal3 5 mg/ml",16.5 min
same,Time (min) to increase A405 by: 0.8,"Table 11, Mal3 5 mg/ml",18.0 min
same,Time (min) to increase A405 by: 1.6,"Table 11, Mal3 5 mg/ml",19.3 min
same,Time (min) to increase A405 by: 3.2,"Table 11, Mal3 5 mg/ml",21.3 min
same,Time (min) to increase A405 by: 0.025,[1],8.5 min
same,Time (min) to increase A405 by: 0.05,[1],9.5 min
same,Time (min) to increase A405 by: 0.1,[1],10.8 min
same,Time (min) to increase A405 by: 0.2,[1],12.0 min
same,Time (min) to increase A405 by: 0.4,[1],13.3 min
same,Time (min) to increase A405 by: 0.8,[1],14.5 min
same,Time (min) to increase A405 by: 1.6,[1],15.8 min
same,Time (min) to increase A405 by: 3.2,[1],17.3 min
same,Time (min) to increase A405 by: 0.025,[2],11.0 min
same,Time (min) to increase A405 by: 0.05,[2],12.5 min
same,Time (min) to increase A405 by: 0.1,[2],13.8 min
same,Time (min) to increase A405 by: 0.2,[2],15.2 min
same,Time (min) to increase A405 by: 0.4,[2],16.5 min
same,Time (min) to increase A405 by: 0.8,[2],18.0 min
same,Time (min) to increase A405 by: 1.6,[2],19.5 min
same,Time (min) to increase A405 by: 3.2,[2],21.3 min
same,Time (min) to increase A405 by: 0.025,[3],8.7 min
same,Time (min) to increase A405 by: 0.05,[3],9.8 min
same,Time (min) to increase A405 by: 0.1,[3],11.0 min
same,Time (min) to increase A405 by: 0.2,[3],12.2 min
same,Time (min) to increase A405 by: 0.4,[3],13.3 min
same,Time (min) to increase A405 by: 0.8,[3],14.7 min
same,Time (min) to increase A405 by: 1.6,[3],16.0 min
same,Time (min) to increase A405 by: 3.2,[3],17.3 min

# — patent US8367390B2, “Galactanase variants” (Novozymes A/S, priority 2002, dated 2013)
